For orientation: Kd means a measure of binding affinity in units of concentration.

Positions of bridges follow the written chain, without caps; N, C: chain ends. Non-standard residues stand in square brackets, D forms with d. Residues, ends and D or L forms follow the SMILES beside them. *: point of attachment. DOTA = O=C(O)CN1CCN(CC(=O)O)CCN(CC(=O)*)CCN(CC(=O)O)CC1; Mpa = O=C(O)CCS

These results are taken from PMC2394487, “Improved radiotracing of oxytocin receptor-expressing tumours using the new [^111In]-DOTA-Lys^8-deamino-vasotocin analogue” (British Journal of Cancer, 2003).

For data set [1], the target named is T1, human OTR (Homo sapiens, UniProt P30559).
T1 construct: expressed in transfected cells; host or cells: COS7 (monkey kidney), transient electroporation
T1 sequence (P30559 1-389): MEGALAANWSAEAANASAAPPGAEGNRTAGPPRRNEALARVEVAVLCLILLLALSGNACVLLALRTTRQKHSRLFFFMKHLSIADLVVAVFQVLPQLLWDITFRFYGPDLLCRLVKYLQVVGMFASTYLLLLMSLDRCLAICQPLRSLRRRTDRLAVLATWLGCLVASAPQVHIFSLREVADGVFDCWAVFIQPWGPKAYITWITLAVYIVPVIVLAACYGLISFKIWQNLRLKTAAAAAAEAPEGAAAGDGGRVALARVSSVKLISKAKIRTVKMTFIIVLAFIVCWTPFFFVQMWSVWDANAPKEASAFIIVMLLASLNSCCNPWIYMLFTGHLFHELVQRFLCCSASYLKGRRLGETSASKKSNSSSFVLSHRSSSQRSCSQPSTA
In words: [111In]-DOTA-dLVT saturation binding assay, membranes of transfected COS7 cells. How it is done: Figure 3 Binding of LVT-derived peptides to human OT/AVP receptor subtypes. (A) Comparison of OT and DOTA-dLVT affinity for the human OTR. Competition experiments were performed using membrane preparations of COS7 cells transiently transfected with the wild-type OTR. [^3H]-OT was used at a concentration of 1–2 nM, and nonspecific binding was determined in the presence of […] OT. Data are expressed as the percentage of bound [^3H]-OT in the absence of cold competitor. The curves are representative of three independent assays performed in triplicate. (B) [^111In]-DOTA-dLVT saturation binding assay. The affinity of [^111In]-DOTA-dLVT for the human OTR was measured by incubating increasing amounts of labelled peptide to membrane preparations of COS7 cells transiently transfected with the wild-type OTR. The curve is representative of two independent assays performed in triplicate. […] The membrane preparations of OTR-expressing cells were incubated in the presence of a constant amount of ^3[H]OT (1–2 nM), and nonspecific binding was determined in the presence of 100 μM OT. The membrane preparations of cells expressing V1a, V1b and V2 receptors were incubated in the presence of a constant amount of ^3[H]AVP (2–4 nM), and nonspecific binding was determined in the presence of 100 μM AVP. The data are expressed as percentages of bound [^3H]-ligand in the absence of cold competitor. […]

In data set [2] the test system is OTR+ TS/A tumours. The data set is described as follows: in vivo. The following applies: mouse; for tissue to tissue ratio at 5 h: female, Balb/c, iv, 74 kBq, total radioactivity. Set-up: species or system Balb/c mice. The procedure: To determine the amount and specificity of the receptor-mediated uptake of [^111In]-DOTA-dLVT in tumours, we used an experimental model of OTR+ TS/A tumours growing in Balb/c mice. A total of 10 female Balb/c mice weighing 25 g were subcutaneously injected with TS/A mammary carcinoma (0.3 × 10^6 in 0.2 ml of medium). After 20 days, when the growing tumour had reached about 2 cm in diameter, five mice were intravenously administered 50 μg of cold OT 30 min before the radiotracer and the other five were not. Mice were injected in the tail vein with [^111In]-DOTA-dLVT (average activity: 74 kBq) and killed 5 h later. The organs were collected, washed, weighed and their radioactivity was measured in a gamma-ray detector with well-counter geometry ([…], Milan, Italy) together with standards of the injection mixture. Activity was expressed as the percentage of the injected dose (%ID) g^-1 of tissue, and the uptake ratios of tumour, blood, kidney and liver were calculated. [table]

`CC[C@H](C)[C@@H]1NC(=O)[C@H](Cc2ccc(O)cc2)NC(=O)CCSSC[C@@H](C(=O)N2CCC[C@H]2C(=O)N[C@@H](CCCCNC(=O)CN2CCN(CC(=O)O)CCN(CC(=O)O)CCN(CC(=O)O)CC2)C(=O)NCC(N)=O)NC(=O)[C@H](CC(N)=O)NC(=O)[C@H](CCC(N)=O)NC1=O` [[^111In]-DOTA-dLVT, metal not drawn] ([Mpa]YIQNCPK(DOTA)G-NH2; disulfide 1-6) had a Kd in data set [1] of 4.5 nM. The tissue to tissue ratio at 5 h in data set [2] (Tumour/kidney ratio) is 0.06. In data set [2] (Tumour/liver ratio), the tissue to tissue ratio at 5 h came to 1.42. For the same compound, in data set [2], the Tumour/blood ratio is listed as 7.58 and the “decrease in uptake when TS/A tumours were blocked with 50 μg of cold OT” value was “three-fold decrease”.
